Assay results from paper PMC10450164 (Nucleic Acids Research, 2023).

How the values were obtained:
[1] = target: the molecule itself; assay: SEC
[2] = target: the molecule itself; assay: crystal structure

B1: TFAP2A HSH domain (aa 279-411) (domain or fragment, human, UniProt P05549 279-411, looked up)
chain: GRRKAANVTLLTSLVEGEAVHLARDFGYVCETEFPAKAVAEFLNRQHSDPNEQVTRKNMLLATKQICKEFTDLLAQDRSPLGNSRPNPILEPGIQSCLTHFNLISHGFGSPAVCAAVTALQNYLTEALKAMDK
[1]
  stoichiometry N: 2

B2: TFAP2B DBD-HSH tandem domain (aa 219-457) (domain or fragment)
chain: not shown
[2]
  binding result: binds

B3: TFAP2A DBD-HSH tandem domain (aa 203-420) (domain or fragment)
chain: not shown
[1]
  stoichiometry N: 2
